T1: Germ cell-expressed C-terminus (GceC, 661-959 aa) (D. melanogaster, UniProt Q9VXW7 661-959)
T1 construct: Germ cell-expressed (Gce) protein, D. melanogaster, UniProt Q9VXW7, residues 661-959 (C-terminal fragment); No step that removes the His tag is described; also called Gce C-terminus
T1 sequence (looked up): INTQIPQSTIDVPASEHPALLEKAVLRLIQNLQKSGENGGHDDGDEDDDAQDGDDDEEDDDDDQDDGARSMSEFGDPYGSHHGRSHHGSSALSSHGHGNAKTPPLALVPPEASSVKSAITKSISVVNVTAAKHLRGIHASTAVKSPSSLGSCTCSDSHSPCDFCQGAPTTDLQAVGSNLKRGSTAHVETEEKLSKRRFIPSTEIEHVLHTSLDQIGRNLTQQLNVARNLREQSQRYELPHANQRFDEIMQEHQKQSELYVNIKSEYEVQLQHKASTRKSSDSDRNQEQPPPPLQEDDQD

B1: Met^PEP, 19-residue peptide of the novel NR-box of MetC (peptide)
peptide: LERIVLYLIENLQKSVDSA
notes: 19-residue peptide representing the novel NR-box in the C-terminus of Met, D. melanogaster, UniProt Q9VYW2; also called MetC^PEP; source: synthetic peptide (PSL GmbH, Heidelberg)
B2: Fushi tarazu factor-1 ligand-binding domain (Ftz-F1 LBD, 786-1027 aa) (domain or fragment, D. melanogaster, UniProt P33244 786-1027, looked up)
chain: ALIEPLRVSPMIREFVQSIDDREWQTQLFALLQKQTYNQVEVDLFELMCKVLDQNLFSQVDWARNTVFFKDLKVDDQMKLLQHSWSDMLVLDHLHHRIHNGLPDETQLNNGQVFNLMSLGLLGVPQLGDYFNELQNKLQDLKFDMGDYVCMKFLILLNPSVRGIVNRKTVSEGHDNVQAALLDYTLTCYPSVNDKFRGLVNILPEIHAMAVRGEDHLYTKHCAGSAPTQTLLMEMLHAKRKG
notes: 15N- or 13C,15N-labelled where it was the observed protein in NMR, unlabelled otherwise; also called LBD Ftz-F1; source: E. coli BL21(DE3), purified (Ni-NTA, thrombin digestion, SEC); not shown: His6, N-terminal, cleaved
B3: Methoprene-tolerant C-terminus (MetC, 509-716 aa) (domain or fragment, D. melanogaster, UniProt Q9VYW2 509-716, looked up)
chain: AGRQKVQEMKEKFSTIIKAEMPTQSSSPDLPASQAPQQLERIVLYLIENLQKSVDSAETVGGQGMESLMDDGYSSPANTLTLEELAPSPTPALALVPPAPSSVKSSISKSVSVVNVTAARKFQQEHQKQRERDREQLKERTNSTQGVIRQLSSCLSEAETASCILSPASSLSASEAPDTPDPHSNTSPPPSLHTRPSVLHRTLTSTLR
notes: Methoprene-tolerant (Met) protein, D. melanogaster, UniProt Q9VYW2, residues 509-716 (C-terminal fragment); 15N- or 13C,15N-labelled where it was the observed protein in NMR, unlabelled where it was added to 15N Ftz-F1 LBD; also called Met C-terminus; source: E. coli BL21(DE3), purified (Ni-NTA, on-column SUMO hydrolase digestion, SEC); not shown: His6, N-terminal, cleaved; SUMO, N-terminal, …

Tests used:
Details in all cases: both partners purified
[1] = molecular target: B2; assay: ITC; 1.06 mM Met^PEP titrated into 0.035 mM Ftz-F1 LBD; 25 C; 20 mM HEPES pH 6.8, 150 mM NaCl, 1 mM TCEP; duplicate, global fit to A + B = AB
[2] = molecular target: T1, Germ cell-expressed C-terminus (GceC, …); assay: NMR titration; 15N-HSQC of 15N Ftz-F1 LBD without and with an equimolar quantity of unlabelled MetC or GceC; 20 mM sodium phosphate pH 6.8, 50 mM NaCl, 1 mM TCEP, 0.5 mM EDTA; 29 C
[3] = molecular target: B2; assay: NMR titration; 15N-HSQC of 150 uM 15N-MetC with unlabelled Ftz-F1 LBD at 0, 40, 82, 122, 199, 301 and 500 uM (cross-mixing); 20 mM Bis-Tris pH 6.5, 150 mM NaCl, 5 mM bME; 18 C

Binder: B1
- Kd [1]: 9.9 µM
- dH [1]: -1.1 kcal/mol
- stoichiometry N [1]: 1

Binder: B2
- binding result [2]: binds

Binder: B3
- binding result [3]: binds
